Patent US9296994B2, “Archease as RNA ligaes complex member” (IMBA—INSTITUT FÜR MOLEKULARE BIOTECHNOLOGIE GMBH, priority 2012, dated 2016)

How the values were obtained:
[1] = molecular target: T1, HSPC117 within the human tRNA ligase complex (Homo sapiens, UniProt Q9Y3I0); assay: Guanylation of affinity purified FLAG-HSPC117 with [α-32P]GTP; format: biochemical; conditions: SDS PAGE, phosphorimaging
T1 construct: FLAG; made in house
Experimental: FIG. 13: Guanylation of HSPC117 within the human tRNA ligase complex by Archease. A. Affinity purified FLAG-HSPC117 was incubated with wild-type or mutant versions of Archease or buffer as a control in the presence of [α-32P]GTP or [α-32P]ATP, full circles indicate inclusion, empty circles indicate omission from reaction mixtures. Reaction mixtures were resolved by SDS PAGE and radiolabeled protein species visualized by phosphorimaging. B. Equal loading was confirmed by Coomassie staining.
Reaction mixtures were resolved by SDS PAGE and radiolabeled protein species visualized by phosphorimaging or by Coomassie staining (FIGS. 13 A and B).

[2] = molecular target: T2, human tRNA ligase complex (Homo sapiens, UniProt Q9Y3I0); assay: RNA ligation assay with affinity-purified tRNA ligase complex and added recombinant Archease; format: biochemical; conditions: pre-cleaved tRNA substrates or linear intron, time course
T2 construct: FLAG; made in house; Archease expressed in E. coli
T2 sequence (Q9Y3I0 whole entry): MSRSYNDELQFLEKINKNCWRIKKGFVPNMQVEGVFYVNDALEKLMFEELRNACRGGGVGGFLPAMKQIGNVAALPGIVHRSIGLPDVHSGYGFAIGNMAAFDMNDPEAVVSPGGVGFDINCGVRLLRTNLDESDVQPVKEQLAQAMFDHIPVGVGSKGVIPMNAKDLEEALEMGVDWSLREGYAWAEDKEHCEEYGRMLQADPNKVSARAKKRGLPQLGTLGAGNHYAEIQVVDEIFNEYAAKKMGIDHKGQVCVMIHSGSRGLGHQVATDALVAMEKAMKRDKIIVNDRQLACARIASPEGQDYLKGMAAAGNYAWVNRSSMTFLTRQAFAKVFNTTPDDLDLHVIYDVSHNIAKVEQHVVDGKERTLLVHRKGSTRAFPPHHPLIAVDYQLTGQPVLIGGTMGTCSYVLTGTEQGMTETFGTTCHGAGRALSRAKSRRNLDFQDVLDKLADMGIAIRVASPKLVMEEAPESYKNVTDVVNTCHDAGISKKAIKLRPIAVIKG
T2 sequence (Q92499 whole entry partner): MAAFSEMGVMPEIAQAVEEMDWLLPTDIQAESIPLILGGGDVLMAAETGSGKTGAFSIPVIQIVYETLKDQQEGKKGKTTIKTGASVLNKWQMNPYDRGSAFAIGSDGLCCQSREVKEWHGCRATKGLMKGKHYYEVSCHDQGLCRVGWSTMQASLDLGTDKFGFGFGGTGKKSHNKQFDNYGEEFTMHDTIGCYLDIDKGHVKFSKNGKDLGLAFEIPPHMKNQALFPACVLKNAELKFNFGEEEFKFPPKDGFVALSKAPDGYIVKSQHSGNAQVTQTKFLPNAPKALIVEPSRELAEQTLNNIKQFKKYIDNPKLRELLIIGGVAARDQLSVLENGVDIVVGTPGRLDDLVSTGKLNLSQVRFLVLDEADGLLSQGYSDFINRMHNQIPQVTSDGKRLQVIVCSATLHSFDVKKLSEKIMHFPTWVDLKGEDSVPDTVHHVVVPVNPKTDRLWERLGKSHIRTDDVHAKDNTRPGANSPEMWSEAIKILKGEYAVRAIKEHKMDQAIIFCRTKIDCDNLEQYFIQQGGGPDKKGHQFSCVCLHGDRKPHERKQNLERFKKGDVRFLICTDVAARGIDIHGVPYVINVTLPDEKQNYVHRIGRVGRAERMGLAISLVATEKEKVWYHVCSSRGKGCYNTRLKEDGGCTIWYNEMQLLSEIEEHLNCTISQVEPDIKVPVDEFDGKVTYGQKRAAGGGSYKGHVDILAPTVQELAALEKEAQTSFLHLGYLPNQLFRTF
T2 sequence (Q52LJ0 whole entry partner): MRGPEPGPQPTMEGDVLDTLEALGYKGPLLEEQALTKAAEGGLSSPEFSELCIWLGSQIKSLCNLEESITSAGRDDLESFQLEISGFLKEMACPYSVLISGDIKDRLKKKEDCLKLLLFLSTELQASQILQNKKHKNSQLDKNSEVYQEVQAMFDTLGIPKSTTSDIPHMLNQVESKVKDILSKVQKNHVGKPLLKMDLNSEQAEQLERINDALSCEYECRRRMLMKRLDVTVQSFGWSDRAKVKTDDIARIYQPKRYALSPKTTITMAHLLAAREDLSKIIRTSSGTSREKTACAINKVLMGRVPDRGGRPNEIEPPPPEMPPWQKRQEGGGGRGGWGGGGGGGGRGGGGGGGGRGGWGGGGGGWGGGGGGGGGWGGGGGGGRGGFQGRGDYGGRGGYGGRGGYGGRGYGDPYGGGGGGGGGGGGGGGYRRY
T2 sequence (Q9BVC5 whole entry partner): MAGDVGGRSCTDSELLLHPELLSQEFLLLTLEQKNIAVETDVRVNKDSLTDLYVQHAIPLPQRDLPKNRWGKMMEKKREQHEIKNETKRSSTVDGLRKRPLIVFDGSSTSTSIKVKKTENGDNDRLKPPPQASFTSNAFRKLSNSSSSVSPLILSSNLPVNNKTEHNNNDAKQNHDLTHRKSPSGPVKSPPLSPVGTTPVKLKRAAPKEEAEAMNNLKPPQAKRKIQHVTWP
T2 sequence (Q9Y224 whole entry partner): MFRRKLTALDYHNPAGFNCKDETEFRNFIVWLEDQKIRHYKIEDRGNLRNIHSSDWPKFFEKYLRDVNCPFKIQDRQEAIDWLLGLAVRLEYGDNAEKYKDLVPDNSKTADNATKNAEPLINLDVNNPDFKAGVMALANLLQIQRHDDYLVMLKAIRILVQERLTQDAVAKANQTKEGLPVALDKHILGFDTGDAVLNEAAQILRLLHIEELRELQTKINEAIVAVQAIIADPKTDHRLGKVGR
Experimental: FIG. 3: Archease boosts RNA ligation by the human tRNA ligase complex. A) Time-course ligation assay with affinity-purified tRNA ligase complex and pre-cleaved tRNA substrates in absence or presence of recombinant Archease. B) Time course ligation assay with affinity purified tRNA ligase complex and isolated linear introns (2.5 μM) in absence or presence of recombinant Archease (8.5 μM) expressed in E. coli. The signals corresponding to the concatemerized intron were quantified and plotted as fraction of the total signal detectable in the respective lane.
FIG. 6: The point mutations D39A and K144A abolish the function of Archease in RNA ligation. A) Time-course of ligation activity of FLAG-HSPC117 complexes upon addition of recombinant wild-type or mutant Archease (15 μM). B) SDS-PAGE analysis of purified recombinant wild-type and mutant Archease.
Addition of Archaease influences ligase activity of affinity purified human tRNA ligase complexes.
To study the function of Archease the available NMR structure from the euryarchaeote Methanothermobacter thermautotrophicus (Yee et al., 2002) (36% identical to human protein) was used and aspartic acid (D) 39 and lysine (K) 144, both extremely conserved residues, were replaced by alanines (D39A; K144A) (FIG. 5). Wild-type and mutant versions of Archease were over-expressed in […] and tRNA ligase activity was measured. […] FIG. 6B confirms equal concentrations of recombinant proteins added to the reactions.

[3] = tested on: cleaved Xbp1 RNA minimal substrate; assay: In vitro Xbp1 splicing (exon ligation) assay with Ire1 pre-cleaved Xbp1 RNA; format: biochemical, human; conditions: addition of recombinant protein
From the text: FIG. 8: The human tRNA ligase HSPC117 and Archease are both required for non-conventional splicing of Xbp1 mRNA during the Unfolded Protein Response (UPR). A) Experimental outline for in vitro splicing assay. B) An internally labeled fragment of Xbp1 mRNA was pre-cleaved with recombinant Ire1 endonuclease and supplemented with buffer or HeLa whole-cell extract (wce) for the indicated time points to allow ligation of exon halves. Formation of splice product is specific to the presence of both Ire1 and cell extract. Lanes marked “unspliced” and “spliced” contain control transcripts to mark the size of the splice product. C) HSPC117 and Archease both contribute to non-conventional splicing. 3′ end labeled Xbp1 was pre-cleaved with Ire1 and supplemented with whole-cell extract from HeLa cells treated with siRNAs as indicated above the lanes. Cell extracts were harvested 72 hrs post transfection. D) Ligase activity for non-conventional splicing resides in HSPC117 but not in Archease. In vitro splicing assay using 3′end labeled Xbp1 carried out using whole cell extract (input) or FLAG-IP from HEK293 cells stably expressing FLAG-HSPC117, FLAG-Archease or FLAG-DDX1. Ligation activity is only found in IPs of integral members of the tRNA ligase complex. E) Non-conventional splicing activity is stimulated by addition of Archease. Splicing assay using 3′ end labeled Xbp1 carried out as above with addition of buffer or recombinant protein as indicated above the lanes. […] Bovine Serum Albumine (BSA) was included as control.
For the splicing assay RNA was prepared by T7-transcrition from PCR product containing spliced and unspliced form of human Xbp1. Substrates were labelled internally using a-GTP and at the 3′end using ligation to pCp. Substrate was pre-cleaved with recombinant Ire1 for 5 mins in tRNA ligation buffer with subsequent addition of protein extract of FLAG-IP eluate to total volume of 5 μl. Samples were treated with proteinase K and phenol-chloroform extracted prior to loading on 10% PAGE gel.
Perturbation of normal ER function causes mis- or unfolded proteins to accumulate leading to activation of the unfolded protein response (UPR). One of three UPR pathway inducers in mammals, the ER transmembrane protein Ire1, cleaves the Xbp1 mRNA specifically to remove a 26 nt intron (FIG. 8A). […] None of the additional four components of the tRNA ligase complex were required for ligation in agreement with previous findings (WO 2012/28606). […] The reduced ligation activity seen in Archease-depleted extracts raised the question whether Archease is an RNA ligase or rather acts to stimulate the ligation activity of other ligases. To address this question stable cell lines expressing FLAG-tagged versions of HSPC117, Archease, and DDX1 (a DEAD-box helicase component of the human tRNA ligase complex) were generated and the Xbp1 ligation assay using FLAG-IPs was performed.
To further address the stimulatory activity of Archease both HSPC117 and Archease were depleted by RNAi and then an Archease rescue-construct containing either WT or MUT Archease was introduced.

[4] = molecular target: T3, FLAG-RTCB, the catalytic subunit of the human tRNA ligase (Homo sapiens, UniProt Q9Y3I0); assay: Assay to monitor Archease function and inhibition of RNA ligase activity (linear intron substrate); format: biochemical; conditions: FLAG-RTCB from HEK293 cells with His-tagged Archease, GTP or GMPcPP at 0.5 mM
T3 construct: FLAG; made in house; host or cells: HEK293 cells (FLAG-RTCB)
T3 sequence (Q9Y3I0 whole entry): as the sequence (Q9Y3I0 whole entry) above
T3 sequence (Q92499 whole entry partner): as the sequence (Q92499 whole entry partner) above
T3 sequence (Q52LJ0 whole entry partner): as the sequence (Q52LJ0 whole entry partner) above
T3 sequence (Q9BVC5 whole entry partner): as the sequence (Q9BVC5 whole entry partner) above
T3 sequence (Q9Y224 whole entry partner): as the sequence (Q9Y224 whole entry partner) above
Experimental: FIG. 14: Assay to monitor inhibition of RNA ligase activity. […] The linear substrate (second from bottom to top) is converted into a circular product (bottom) or a concatemer (top), which is further circularized (third from bottom to top). Ligation only took place with wild-type Archease and GTP.
The RNA ligation activity of FLAG-RTCB, the catalytic subunit of the human tRNA ligase, was determined in the presence of wildtype or mutant (D39A) Archease with the addition of GTP or non-hydrolysable GMPcPP (5′-guanylylmethylenebisphosphonate). […] The reaction was carried out with FLAG-RTCB purified from HEK293 cells and hexahistidine tagged wild-type or mutant Archease. Furthermore, GTP or GMPcPP were used at 0.5 mM concentration. A linear intron derived from a radioactively labelled pre-tRNA that was transcribed with T7 polymerase and cleaved with recombinant tRNA endonuclease from Methanocaldococcus jannaschii served as substrate. Cleavage products were resolved on preparative denaturing polyacrylamide gels and the linear intron was eluted overnight and recovered by precipitation. With reference to FIG. 14, FLAG-RTCB and wild-type Archease in the presence of GTP are able to convert the linear substrate (second from bottom to top) into a circular product (bottom) or a concatemer (top), which is further circularized (third from bottom to top). This type of assay can be used to validate candidate inhibitors of the Archease or even the ligase or to screen compound libraries in order to find inhibitory molecules.

T1 sequence (Q9Y3I0 whole entry): as the sequence (Q9Y3I0 whole entry) above
T1 sequence (Q92499 whole entry partner): as the sequence (Q92499 whole entry partner) above
T1 sequence (Q52LJ0 whole entry partner): as the sequence (Q52LJ0 whole entry partner) above
T1 sequence (Q9BVC5 whole entry partner): as the sequence (Q9BVC5 whole entry partner) above
T1 sequence (Q9Y224 whole entry partner): as the sequence (Q9Y224 whole entry partner) above

Stimulation of ligation of Xbp1 RNA minimal substrates by affinity purified human tRNA ligase complex [3]: strongly stimulated ligation
B1: wild-type Archease: Homo sapiens Archease protein (SEQ ID NO: 28), recombinant, enhances RNA ligase activity of HSPC117 (protein, listed as Homo sapiens)
chain: MAQEEEDVRDYNLTEEQKAIKAKYPPVNRKYEYLDHTADVQLHAWGDTLEEAFEQCAMAMFGYMTDTGTVEPLQTVEVETQGDDLQSLLFHFLDEWLYKFSADEFFIPREVKVLSIDQRNFKLRSIGWGEEFSLSKHPQGTEVKAITYSAMQVYNEENPEVFVIIDI
Guanylation of FLAG-HSPC117 [1]: only detectable in the presence of wild-type
RNA ligase activity of affinity purified tRNA ligase complex upon addition of recombinant Archease [2]: led to an increase in RNA ligase activity
RNA ligase activity of affinity purified tRNA ligase complex upon addition of recombinant Archease ([2]; listed as recombinant Archease): boosts ligation activity to a great extent
RNA ligation activity of FLAG-RTCB [4]: Ligation only takes place with wild-type Archease
